Where “and” joins values, the source holds several entries; their conditions need not be identical. Identical values can stand only once.
T1: DsrEFH from Allochromatium vinosum (DsrE2F2H2 heterohexamer), wild type (Allochromatium vinosum, UniProt O87896 1-130; O87897 1-136; O87898 1-102)
T1 construct: DsrE, subunit of DsrEFH, Allochromatium vinosum; conserved active-site Cys78; DsrF, subunit of DsrEFH, Allochromatium vinosum; DsrH, subunit of DsrEFH, Allochromatium vinosum; conserved Cys20; source: overproduced and purified as described earlier [22], [8], [3]; not shown: His-tag (subunit inferred: DsrE), N-terminal, kept; copies: 2 + 2 + 2
T1 sequence (looked up) 1: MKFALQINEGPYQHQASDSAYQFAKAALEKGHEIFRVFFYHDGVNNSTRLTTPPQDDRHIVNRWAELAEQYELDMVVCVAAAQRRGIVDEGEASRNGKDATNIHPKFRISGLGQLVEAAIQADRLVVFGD
T1 sequence (looked up) 2: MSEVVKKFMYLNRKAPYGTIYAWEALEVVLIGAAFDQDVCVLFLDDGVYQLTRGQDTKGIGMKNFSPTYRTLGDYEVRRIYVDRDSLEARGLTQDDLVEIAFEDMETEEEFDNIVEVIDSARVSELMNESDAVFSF
T1 sequence (looked up) 3: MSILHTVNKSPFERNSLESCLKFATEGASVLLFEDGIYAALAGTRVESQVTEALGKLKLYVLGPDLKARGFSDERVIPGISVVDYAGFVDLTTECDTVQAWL


Legend:
DsrEFH = biological target: T2, DsrEFH (Allochromatium vinosum, UniProt O87896); assay: MALDI-TOF mass spectrometry, mass increase (persulfide); format: binding; conditions: 2 mM NaSH, 1 h, 30°C, 50 mM Tris-HCl pH 7.5, 100 mM NaCl; covalent; at DsrE-Cys78
T2 construct: gene dsrE; recombinant, amino-terminal His-tag; alpha2beta2gamma2 heterohexamer; with Intracellular sulfur oxidation protein DsrF; Intracellular sulfur oxidation protein DsrH

[1] = biological target: T1, DsrEFH from Allochromatium vinosum …; assay: dynamic light scattering; DsrEFH (2 mg/ml) with or without DsrC (0.8 mg/ml), same ratio and conditions as for native gels, 30°C; apparent molecular mass from hydrodynamic diameter; conditions: both partners purified
[2] = biological target: T1, DsrEFH from Allochromatium vinosum …; assay: native gel or EMSA; Blue-native PAGE (10-15%), 4°C, 6 mA; DsrEFH pre-incubated with DsrC in 1:2 ratio as for the native gel; masses from a calibration curve of standards; conditions: both partners purified

| Molecule | MALDI-TOF mass spectrometry, mass increase (persulfide) (DsrEFH) | stoichiometry N [1] | stoichiometry N [2] |
| --- | --- | --- | --- |
| S [sulfide] | The persulfuration was attained by incubation with sulfide as well as with cysteine and IscS. | – | – |
| DsrC from Allochromatium vinosum, wild type (natural protein, UniProt O87899 1-112, looked up, DsrC, Allochromatium vinosum; conserved Cys100 and Cys111 (Cys111 in the penultimate position of the protein); Reduced with 25 uM TCEP before SPR; also called DsrC wild type; DsrC wt; source: overproduced and purified as described earlier [22], [8], [3]; not shown: His-tag, N-terminal, kept) MADTIEVDGKQFAVDEEGYLSNLNDWVPGVADVMAKQDNLELTEEHWDIINFLREYYEEYQIAPAVRVLTKAVGKKLGKEKGNSKYLYSLFPYGPAKQACRFAGLPKPTGCV | – | 1 DsrC:DsrEFH | 1 DsrC per DsrE2F2H2 heterohexamer and 2 DsrC per DsrE2F2H2 heterohexamer |
